Targets include SRPK2(h) (Homo sapiens, UniProt P78362); Flt4(h) (Homo sapiens, UniProt P35916); IR(h) (Homo sapiens, UniProt P06213); Ret(h) (Homo sapiens, UniProt P07949); HIPK1(h) (Homo sapiens, UniProt Q86Z02); BTK(h) (Homo sapiens, UniProt Q06187); Abl (Q252H) (h) (Homo sapiens, UniProt P00519, Q252H); Met(h) (Homo sapiens, UniProt P08581); TrkB(h) (Homo sapiens, UniProt Q16620); Tie2(Y897S)(h) (Homo sapiens, UniProt Q02763, Y897S); VRK2(h) (Homo sapiens, UniProt Q86Y07).

Test in all cases: Kinase Profiling Assay
Common to all, as to type: biochemical
Details in all cases: 100 μM

The next assay concerns the target T1, PKG1β(h) (Homo sapiens, UniProt Q13976).
T1 sequence (Q13976 1-686 isoform Q13976-2): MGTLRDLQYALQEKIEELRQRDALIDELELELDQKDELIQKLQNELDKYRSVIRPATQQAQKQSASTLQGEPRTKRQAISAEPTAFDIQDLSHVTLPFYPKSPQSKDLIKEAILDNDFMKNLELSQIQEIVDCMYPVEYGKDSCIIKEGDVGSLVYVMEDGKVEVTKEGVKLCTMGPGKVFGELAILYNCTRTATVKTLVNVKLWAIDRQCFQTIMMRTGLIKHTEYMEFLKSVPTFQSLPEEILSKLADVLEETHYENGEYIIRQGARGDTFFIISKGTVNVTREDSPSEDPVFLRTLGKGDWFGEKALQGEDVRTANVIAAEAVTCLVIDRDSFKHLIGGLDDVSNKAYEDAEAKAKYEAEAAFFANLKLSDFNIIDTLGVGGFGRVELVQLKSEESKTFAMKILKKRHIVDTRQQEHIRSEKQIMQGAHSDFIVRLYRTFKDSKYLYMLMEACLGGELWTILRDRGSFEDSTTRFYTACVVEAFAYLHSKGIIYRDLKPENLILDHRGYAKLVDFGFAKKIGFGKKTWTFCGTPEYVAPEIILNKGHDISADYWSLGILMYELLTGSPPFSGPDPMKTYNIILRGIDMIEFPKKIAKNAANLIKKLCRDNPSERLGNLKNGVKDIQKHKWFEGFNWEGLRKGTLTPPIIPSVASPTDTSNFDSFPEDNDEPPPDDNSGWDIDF

The next assay addresses T2, NLK(h) (Homo sapiens, UniProt Q9UBE8).
T2 sequence (Q9UBE8 1-527): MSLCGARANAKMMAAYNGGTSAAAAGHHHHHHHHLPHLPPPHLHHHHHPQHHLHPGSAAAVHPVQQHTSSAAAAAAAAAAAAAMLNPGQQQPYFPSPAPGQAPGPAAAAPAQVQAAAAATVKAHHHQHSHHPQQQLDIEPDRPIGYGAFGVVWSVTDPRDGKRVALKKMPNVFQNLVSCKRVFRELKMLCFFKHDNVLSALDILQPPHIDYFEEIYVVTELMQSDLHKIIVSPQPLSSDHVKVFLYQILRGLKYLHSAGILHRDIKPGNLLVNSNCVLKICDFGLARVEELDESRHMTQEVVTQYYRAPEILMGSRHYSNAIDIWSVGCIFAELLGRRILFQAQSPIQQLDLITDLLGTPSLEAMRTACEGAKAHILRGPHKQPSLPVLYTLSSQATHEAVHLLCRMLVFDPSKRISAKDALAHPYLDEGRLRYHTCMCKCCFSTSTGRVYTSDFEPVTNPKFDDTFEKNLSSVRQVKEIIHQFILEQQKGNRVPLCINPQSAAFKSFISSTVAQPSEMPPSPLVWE

The next assay has as its target T3, DDR2(h) (Homo sapiens, UniProt Q16832).
T3 sequence (Q16832 22-855): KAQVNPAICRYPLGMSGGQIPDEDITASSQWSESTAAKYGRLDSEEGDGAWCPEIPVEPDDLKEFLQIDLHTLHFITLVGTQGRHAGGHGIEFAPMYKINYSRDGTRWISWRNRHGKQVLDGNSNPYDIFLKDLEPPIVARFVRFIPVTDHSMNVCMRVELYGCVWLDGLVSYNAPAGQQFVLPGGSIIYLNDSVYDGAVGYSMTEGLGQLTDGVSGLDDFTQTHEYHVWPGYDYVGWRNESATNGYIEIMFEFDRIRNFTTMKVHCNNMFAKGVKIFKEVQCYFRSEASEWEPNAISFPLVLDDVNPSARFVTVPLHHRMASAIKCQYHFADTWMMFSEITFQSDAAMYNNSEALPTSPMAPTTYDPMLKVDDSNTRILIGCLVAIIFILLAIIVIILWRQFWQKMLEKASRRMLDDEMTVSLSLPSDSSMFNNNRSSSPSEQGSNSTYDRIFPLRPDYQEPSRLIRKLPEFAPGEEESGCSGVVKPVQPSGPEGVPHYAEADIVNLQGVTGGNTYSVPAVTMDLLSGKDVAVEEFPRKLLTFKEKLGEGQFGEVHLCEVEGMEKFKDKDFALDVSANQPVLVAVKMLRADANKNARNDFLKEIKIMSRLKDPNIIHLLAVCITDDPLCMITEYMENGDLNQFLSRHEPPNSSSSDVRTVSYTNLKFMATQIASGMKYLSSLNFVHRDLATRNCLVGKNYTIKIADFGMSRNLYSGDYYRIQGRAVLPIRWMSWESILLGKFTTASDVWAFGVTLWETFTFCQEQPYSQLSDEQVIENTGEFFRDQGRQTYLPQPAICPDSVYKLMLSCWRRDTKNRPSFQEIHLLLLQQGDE

This is an account of results in US20190134153A1, “IMMUNOMODULATORY EFFECT OF INHALED KINASE INHIBITOR PEPTIDES IN LUNG” (MOERAE MATRIX, INC., priority 2017, published 2019).

Sequence of Met(h) (P08581 25-1390): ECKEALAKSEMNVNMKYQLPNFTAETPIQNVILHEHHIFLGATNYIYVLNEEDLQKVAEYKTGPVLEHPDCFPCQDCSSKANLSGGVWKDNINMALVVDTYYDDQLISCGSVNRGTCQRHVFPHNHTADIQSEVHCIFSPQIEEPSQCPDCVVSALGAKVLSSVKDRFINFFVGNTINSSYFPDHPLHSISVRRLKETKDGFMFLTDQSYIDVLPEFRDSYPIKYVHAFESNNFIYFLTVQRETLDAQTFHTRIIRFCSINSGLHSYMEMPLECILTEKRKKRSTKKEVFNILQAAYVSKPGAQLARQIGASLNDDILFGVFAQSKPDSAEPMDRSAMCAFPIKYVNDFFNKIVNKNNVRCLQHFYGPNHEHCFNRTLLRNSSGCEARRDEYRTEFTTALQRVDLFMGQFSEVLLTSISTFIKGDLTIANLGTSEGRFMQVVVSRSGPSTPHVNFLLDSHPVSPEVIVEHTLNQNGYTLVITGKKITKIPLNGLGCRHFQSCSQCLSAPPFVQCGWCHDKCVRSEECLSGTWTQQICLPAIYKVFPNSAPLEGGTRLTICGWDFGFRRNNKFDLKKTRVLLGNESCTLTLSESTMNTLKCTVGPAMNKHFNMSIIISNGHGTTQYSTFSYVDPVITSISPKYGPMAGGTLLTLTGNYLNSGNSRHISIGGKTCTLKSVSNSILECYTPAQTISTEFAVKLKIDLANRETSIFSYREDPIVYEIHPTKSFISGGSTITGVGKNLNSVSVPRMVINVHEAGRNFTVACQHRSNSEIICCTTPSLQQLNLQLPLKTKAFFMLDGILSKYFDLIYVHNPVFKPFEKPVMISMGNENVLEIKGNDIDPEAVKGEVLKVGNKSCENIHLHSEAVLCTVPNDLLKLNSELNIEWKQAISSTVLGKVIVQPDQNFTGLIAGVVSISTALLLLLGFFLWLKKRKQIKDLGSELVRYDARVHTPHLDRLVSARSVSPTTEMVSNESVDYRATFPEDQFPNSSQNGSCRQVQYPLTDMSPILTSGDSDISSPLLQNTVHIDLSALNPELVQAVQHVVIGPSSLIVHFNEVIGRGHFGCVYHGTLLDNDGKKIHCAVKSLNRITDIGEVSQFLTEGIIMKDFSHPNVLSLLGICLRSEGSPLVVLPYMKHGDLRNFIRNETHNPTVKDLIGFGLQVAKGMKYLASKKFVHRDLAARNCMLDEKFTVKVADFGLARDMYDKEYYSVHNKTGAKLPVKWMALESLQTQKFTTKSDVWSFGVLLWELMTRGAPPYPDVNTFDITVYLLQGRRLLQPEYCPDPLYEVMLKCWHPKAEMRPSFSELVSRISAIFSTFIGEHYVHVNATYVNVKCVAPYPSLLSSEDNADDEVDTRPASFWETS
Sequence of Tie2(Y897S)(h) (Q02763 23-1124 Y897S): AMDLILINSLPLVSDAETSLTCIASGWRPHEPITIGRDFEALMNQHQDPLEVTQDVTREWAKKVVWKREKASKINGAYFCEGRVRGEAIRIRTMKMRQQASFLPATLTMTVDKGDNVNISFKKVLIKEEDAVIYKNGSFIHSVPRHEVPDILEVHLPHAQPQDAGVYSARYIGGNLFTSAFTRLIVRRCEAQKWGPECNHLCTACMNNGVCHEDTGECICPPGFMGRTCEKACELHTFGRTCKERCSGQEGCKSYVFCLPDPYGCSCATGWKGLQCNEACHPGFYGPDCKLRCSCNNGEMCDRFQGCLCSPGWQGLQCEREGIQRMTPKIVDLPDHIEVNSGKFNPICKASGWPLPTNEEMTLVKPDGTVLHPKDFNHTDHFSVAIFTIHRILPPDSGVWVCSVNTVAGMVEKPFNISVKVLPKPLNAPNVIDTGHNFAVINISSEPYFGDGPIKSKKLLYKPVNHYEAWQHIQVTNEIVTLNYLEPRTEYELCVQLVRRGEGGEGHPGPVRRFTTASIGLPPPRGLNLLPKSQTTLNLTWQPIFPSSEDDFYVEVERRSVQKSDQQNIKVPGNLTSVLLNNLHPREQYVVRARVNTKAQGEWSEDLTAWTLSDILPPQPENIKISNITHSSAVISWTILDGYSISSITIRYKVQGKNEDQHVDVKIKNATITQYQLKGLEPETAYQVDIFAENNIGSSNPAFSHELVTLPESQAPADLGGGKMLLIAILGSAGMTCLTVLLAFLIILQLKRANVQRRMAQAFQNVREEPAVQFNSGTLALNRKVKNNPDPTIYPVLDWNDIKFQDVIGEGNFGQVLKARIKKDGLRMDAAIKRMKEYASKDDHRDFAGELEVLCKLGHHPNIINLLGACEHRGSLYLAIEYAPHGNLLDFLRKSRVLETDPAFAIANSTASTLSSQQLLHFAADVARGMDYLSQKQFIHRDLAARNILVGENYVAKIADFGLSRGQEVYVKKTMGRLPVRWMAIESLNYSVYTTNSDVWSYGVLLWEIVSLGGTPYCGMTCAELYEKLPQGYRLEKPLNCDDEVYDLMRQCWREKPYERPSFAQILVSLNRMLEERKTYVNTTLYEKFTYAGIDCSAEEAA
Sequence of BTK(h) (Q06187 whole entry): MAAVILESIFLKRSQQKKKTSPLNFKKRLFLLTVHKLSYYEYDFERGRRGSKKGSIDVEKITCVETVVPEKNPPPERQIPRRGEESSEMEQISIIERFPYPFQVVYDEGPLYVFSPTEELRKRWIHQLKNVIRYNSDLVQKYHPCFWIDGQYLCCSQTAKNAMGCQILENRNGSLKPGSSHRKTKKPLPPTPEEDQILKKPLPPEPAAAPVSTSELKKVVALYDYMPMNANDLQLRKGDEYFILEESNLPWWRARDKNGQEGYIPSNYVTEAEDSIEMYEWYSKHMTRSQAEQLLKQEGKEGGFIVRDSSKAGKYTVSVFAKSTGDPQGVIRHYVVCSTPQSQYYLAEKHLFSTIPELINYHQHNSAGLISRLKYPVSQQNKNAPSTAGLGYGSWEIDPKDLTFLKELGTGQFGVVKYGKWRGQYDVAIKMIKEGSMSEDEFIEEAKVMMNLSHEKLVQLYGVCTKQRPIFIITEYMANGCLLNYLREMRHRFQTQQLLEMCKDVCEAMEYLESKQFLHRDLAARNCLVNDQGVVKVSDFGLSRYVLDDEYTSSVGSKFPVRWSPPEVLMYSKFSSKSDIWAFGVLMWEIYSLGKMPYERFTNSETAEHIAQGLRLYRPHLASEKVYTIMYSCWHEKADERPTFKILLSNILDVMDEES
Sequence of VRK2(h) (Q86Y07 whole entry): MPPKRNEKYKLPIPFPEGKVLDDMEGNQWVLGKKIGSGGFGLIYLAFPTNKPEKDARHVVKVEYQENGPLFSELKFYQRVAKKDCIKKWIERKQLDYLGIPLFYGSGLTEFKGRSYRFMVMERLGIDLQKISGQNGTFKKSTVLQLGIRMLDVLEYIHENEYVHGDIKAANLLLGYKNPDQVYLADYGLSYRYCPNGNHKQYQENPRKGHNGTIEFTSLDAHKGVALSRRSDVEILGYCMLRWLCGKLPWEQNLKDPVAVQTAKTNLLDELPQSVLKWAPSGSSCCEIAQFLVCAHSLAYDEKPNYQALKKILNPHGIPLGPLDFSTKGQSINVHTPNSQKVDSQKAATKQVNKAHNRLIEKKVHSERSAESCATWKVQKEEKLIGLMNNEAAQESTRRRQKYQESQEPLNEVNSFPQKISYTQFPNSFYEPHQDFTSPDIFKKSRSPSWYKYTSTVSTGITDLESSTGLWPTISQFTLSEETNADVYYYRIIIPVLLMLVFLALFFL
Sequence of HIPK1(h) (Q86Z02 whole entry): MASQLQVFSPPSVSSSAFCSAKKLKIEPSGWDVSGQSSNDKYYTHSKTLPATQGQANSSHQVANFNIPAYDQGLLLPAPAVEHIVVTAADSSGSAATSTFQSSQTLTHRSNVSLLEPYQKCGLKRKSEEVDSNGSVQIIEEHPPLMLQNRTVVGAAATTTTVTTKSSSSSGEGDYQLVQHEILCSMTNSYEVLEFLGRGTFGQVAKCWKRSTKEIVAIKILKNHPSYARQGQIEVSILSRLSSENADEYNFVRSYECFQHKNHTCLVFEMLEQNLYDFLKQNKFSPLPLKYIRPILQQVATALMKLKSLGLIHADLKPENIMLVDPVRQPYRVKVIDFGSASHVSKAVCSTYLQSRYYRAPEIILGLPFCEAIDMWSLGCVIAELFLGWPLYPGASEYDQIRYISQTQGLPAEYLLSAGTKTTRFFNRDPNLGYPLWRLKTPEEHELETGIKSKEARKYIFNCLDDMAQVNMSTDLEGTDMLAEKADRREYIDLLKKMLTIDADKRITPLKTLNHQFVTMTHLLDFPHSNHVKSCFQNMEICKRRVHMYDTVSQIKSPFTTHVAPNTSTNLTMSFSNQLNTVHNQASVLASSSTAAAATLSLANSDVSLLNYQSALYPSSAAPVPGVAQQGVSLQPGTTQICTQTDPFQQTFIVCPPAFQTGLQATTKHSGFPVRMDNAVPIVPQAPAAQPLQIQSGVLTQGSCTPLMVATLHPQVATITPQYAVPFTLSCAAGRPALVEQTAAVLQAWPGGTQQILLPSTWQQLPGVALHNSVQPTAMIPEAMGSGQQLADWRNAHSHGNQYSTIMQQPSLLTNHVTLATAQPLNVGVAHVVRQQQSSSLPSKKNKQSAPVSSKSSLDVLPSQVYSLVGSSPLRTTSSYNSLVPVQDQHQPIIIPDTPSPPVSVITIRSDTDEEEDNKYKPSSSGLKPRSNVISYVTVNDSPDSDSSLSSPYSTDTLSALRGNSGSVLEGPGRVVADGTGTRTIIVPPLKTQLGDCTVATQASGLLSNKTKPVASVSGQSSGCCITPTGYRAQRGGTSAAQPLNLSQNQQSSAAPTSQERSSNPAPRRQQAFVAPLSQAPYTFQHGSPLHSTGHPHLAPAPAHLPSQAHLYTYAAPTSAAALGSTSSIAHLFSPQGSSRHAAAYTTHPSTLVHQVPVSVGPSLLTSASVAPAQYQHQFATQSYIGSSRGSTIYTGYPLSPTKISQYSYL

Consider HRRIKAWLKKIKALARQLGVAA [MMI-0500], for which the “% activity” value with SRPK2(h) is on record as 80%; with Flt4(h) it was 73%; with IR(h), 95%; with Ret(h), 174%; with HIPK1(h), 47%; with PKG1β(h), 24%. The “% activity” value in the assay with NLK(h) stood at 19%; in the assay with BTK(h) it was 18%; in the assay with Abl (Q252H) (h) it was 40%; in the assay with Met(h) it was 27%; with DDR2(h) it was 79%; with TrkB(h), 12%. Moreover, the “% activity” value amounted to 80% with Tie2(Y897S)(h) and 169% with VRK2(h).

As to YARAAARQARAKALNRQLGVA [MMI-0200], the “% activity” value amounted to 100% in the assay with SRPK2(h); 90% in the assay with IR(h); 96% in the assay with Ret(h); 57% with PKG1β(h); 100% with BTK(h); 71% with Met(h). Besides, the “% activity” value with TrkB(h) is 7%; with Tie2(Y897S)(h), 85%.

As for KAFAKLAARLYRKALARQLGVAA [MMI-0400], the “% activity” value with SRPK2(h) turned out to be 97%; with Flt4(h), 89%; in the assay with IR(h) it was 85%; with Ret(h), 145%; in the assay with HIPK1(h) it was 91%; with PKG1β(h), 53%. The “% activity” value with NLK(h) is listed as 90%; with BTK(h) it was 94%; in the assay with Abl (Q252H) (h) it was 98%; with Met(h) it was 62%; with DDR2(h), 95%; with TrkB(h), 8%. Also, the “% activity” value with Tie2(Y897S)(h) was found to be 87%; with VRK2(h) it was 185%.

Regarding FAKLAARLYRKALARQLGVAA [MMI-0300], the “% activity” value came out at 83% with Flt4(h); 96% with IR(h); 140% with Ret(h); 74% in the assay with HIPK1(h); 50% with PKG1β(h); 87% with NLK(h). Also, the “% activity” value was 82% with Abl (Q252H) (h); 65% in the assay with Met(h); 94% in the assay with DDR2(h); 5% with TrkB(h); 83% with Tie2(Y897S)(h); 161% with VRK2(h).
